According to patent US20210363269A1 (ALX ONCOLOGY, published 2021):

Tests used:
[1] = target: T1, human SIRP-α v1 D1 domain (human, UniProt P78324 31-149); assay: SPR, antibody immobilised on GLC chip
T1 construct: biotinylated and captured on avidin in the ELISA; also called human v1
Method in brief: (§1)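 Protein A-purified antibodies were diluted to 80 nM in 10 mM sodium acetate pH 4.5 and amine-coupled (~1000 RU) to a GLC chip of a ProteOn XPR36 biosensor. SIRP analytes were injected one-shot at 100, 33, 11, 3.7, 1.2 and 0 nM in PBS pH 7.4 with 0.01% Tween-20 at 25° C. Association ran 90 s at 100 μL/min and dissociation 1200 s. KD came from double-referenced data fitted globally to a Langmuir model, as kd/ka.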
T1 sequence (P78324 31-149 limits assumed): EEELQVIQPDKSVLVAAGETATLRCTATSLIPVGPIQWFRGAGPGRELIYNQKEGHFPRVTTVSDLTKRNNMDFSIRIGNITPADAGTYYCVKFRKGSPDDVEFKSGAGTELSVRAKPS

[2] = target: T2, human SIRP-α v2 D1 domain (human); assay: SPR, antibody immobilised on GLC chip
T2 construct: biotinylated and captured on avidin in the ELISA; also called human v2
Method in brief: as §1

[3] = target: T3, cynomolgus SIRP-α D1 domain (cyno1) (cynomolgus monkey, UniProt Q5TFQ8 30-148 (human entry), limits assumed); assay: SPR
T3 chain: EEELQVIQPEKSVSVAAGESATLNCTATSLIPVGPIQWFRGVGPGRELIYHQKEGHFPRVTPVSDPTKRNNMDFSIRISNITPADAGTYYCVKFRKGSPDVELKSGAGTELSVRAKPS
Method in brief: (§2)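 Pre-filtered culture media supplied the scFv-Fc antibody clones, which were captured by anti-human IgG Fc amine-coupled (about 4000 RU) to a GLC chip on a ProteOn XPR36. SIRP analytes were flowed in PBS pH 7.4 with 0.01% Tween-20 at 25° C. Interspot and buffer-blank responses were subtracted from the data, which were then fitted to a 1:1 Langmuir model. Dissociation rate constants (koff) were derived from this fitting.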

human SIRPγ isoform 1 [4] = target: T4, human SIRPγ isoform 1 (human, UniProt Q9P1W8 29-147); assay: SPR
T4 construct: also called SIRPg; sirpg
T4 sequence (Q9P1W8 29-147 limits assumed): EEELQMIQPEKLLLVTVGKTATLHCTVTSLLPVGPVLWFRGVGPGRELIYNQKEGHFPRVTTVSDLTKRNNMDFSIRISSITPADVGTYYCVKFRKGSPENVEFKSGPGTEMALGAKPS
Method in brief: as §2

[5] = target: T5, C57BL/6 mouse SIRP-α D1 domain (mouse (C57BL/6 strain), UniProt P97797 32-148); assay: SPR
T5 sequence: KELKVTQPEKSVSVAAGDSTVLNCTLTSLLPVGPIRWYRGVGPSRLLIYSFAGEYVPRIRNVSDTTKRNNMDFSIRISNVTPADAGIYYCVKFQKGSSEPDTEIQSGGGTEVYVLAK
Method in brief: as §2

human SIRPβ isoform 1 [6] = target: T6, human SIRPβ isoform 1 (human, UniProt O00241 30-148); assay: SPR, Langmuir fit
T6 construct: also called SIRPb; sirpb1
T6 sequence (O00241 30-148 limits assumed): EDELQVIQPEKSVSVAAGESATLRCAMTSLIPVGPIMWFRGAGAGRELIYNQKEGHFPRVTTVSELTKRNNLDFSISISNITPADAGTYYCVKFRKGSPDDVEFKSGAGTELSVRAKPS
Method in brief: as §2

[7] = target: T7, high affinity SIRP-α D1 variant CV1-3; assay: SPR, Langmuir fit
T7 chain: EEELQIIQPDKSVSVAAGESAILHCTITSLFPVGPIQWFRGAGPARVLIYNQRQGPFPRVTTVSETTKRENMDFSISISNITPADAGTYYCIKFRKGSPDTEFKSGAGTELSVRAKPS
Method in brief: as §2

[8] = target: T8, human SIRP-α v2 D1 domain (human); assay: SPR, Langmuir fit
T8 construct: also called human v2
Method in brief: as §2
T8 sequence (chain, as listed by the source limits assumed): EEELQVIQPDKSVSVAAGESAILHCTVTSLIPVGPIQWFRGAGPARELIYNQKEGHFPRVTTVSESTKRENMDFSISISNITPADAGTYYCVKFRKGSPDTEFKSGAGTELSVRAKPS

[9] = target: T9, human SIRP-α v1 D1 domain (human, UniProt P78324 31-149); assay: SPR, Langmuir fit
T9 construct: also called human v1
Method in brief: as §2
T9 sequence (P78324 31-149 limits assumed): as the sequence (P78324 31-149 limits assumed) above

[10] = target: T10, NOD mouse SIRP-α D1 domain (mouse (NOD strain)); assay: SPR
T10 chain: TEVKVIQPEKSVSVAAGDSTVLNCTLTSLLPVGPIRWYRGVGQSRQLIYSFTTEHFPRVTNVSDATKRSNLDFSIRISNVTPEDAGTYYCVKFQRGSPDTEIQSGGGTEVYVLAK
Method in brief: as §2

[11] = target: T11, mouse 129 SIRP-α D1 domain (mouse (129 strain), UniProt P97797 32-150); assay: SPR
T11 construct: also called m129
T11 chain: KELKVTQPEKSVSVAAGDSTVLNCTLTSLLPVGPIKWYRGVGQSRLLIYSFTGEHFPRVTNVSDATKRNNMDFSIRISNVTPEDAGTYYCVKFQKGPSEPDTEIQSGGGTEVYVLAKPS
Method in brief: as §2

[12] = target: T12, cynomolgus SIRP-α D1 domain (cyno2) (cynomolgus monkey, UniProt Q5TFQ8 30-148 (human entry), limits assumed); assay: SPR, Langmuir fit
T12 chain: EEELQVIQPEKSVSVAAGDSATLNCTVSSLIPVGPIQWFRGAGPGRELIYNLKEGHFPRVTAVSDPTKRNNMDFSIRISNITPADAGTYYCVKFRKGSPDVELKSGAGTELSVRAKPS
Method in brief: as §2

[13] = target: T3, cynomolgus SIRP-α D1 domain (cyno1); assay: SPR, Langmuir fit
Method in brief: as §2

human SIRPγ isoform 1 [14] = target: T4, human SIRPγ isoform 1; assay: SPR, Langmuir fit
Method in brief: as §2

human SIRPβ isoform 1 [15] = target: T6, human SIRPβ isoform 1; assay: SPR
Method in brief: as §2

B1: 135 wt/wt_M34V (antibody, human IgG1, V domains shown)
VH: DVQLVESGGGVVRPGESLRLSCAASGFSFSIYAVSWVRQAPGEGLEWVSTIGADDTYYADSVKGRFTISRDNSKNTLYLQMNSLRAEDTAVYYCAKDSTVGWSGDFFDYWGLGTLVTVSS
VL: EIVLTQSPATLSVSPGERVTFSCRASQNVRSDIAWYQQKPGQAPRLLIYAASSRDTGIPDRFSGSGSGTDFTLTISSLQSEDFGVYYCQQYYDWPPFTFGGGTKVEIK
notes: human IgG1 with L234A, L235A, G237A, N297A
binding result [1]: binds
binding result [2]: binds

B2: 135 wt/wt_M34L (antibody, human IgG1, V domains shown)
VH: DVQLVESGGGVVRPGESLRLSCAASGFSFSIYALSWVRQAPGEGLEWVSTIGADDTYYADSVKGRFTISRDNSKNTLYLQMNSLRAEDTAVYYCAKDSTVGWSGDFFDYWGLGTLVTVSS
VL: EIVLTQSPATLSVSPGERVTFSCRASQNVRSDIAWYQQKPGQAPRLLIYAASSRDTGIPDRFSGSGSGTDFTLTISSLQSEDFGVYYCQQYYDWPPFTFGGGTKVEIK
notes: as for B1
binding result [1]: binds
binding result [2]: binds

B3: S209 (scFv, V domains shown)
VH: DVQLVESGGAVVRPGESLRLSCKASGFTFTNFAMSWVRQAPGEGLEWVSGISGSDDTTYYADSVKGRFTISRDNSESTLYLQMNSLRAEDTAVYYCVKDSTVSWNTFFDYWGLGTLVTVSS
VL: ALTQPASVSANLGGTVKITCSGGYGSDDGSSSYYGWYQQKSPGSAPVILIYWDDKRPSDIPSRFSGSTSGSTTTLTITGVQAEDEAVYFCGTYDTSSGAIFGAGTTLTVL
binding result [3]: no binding (tested: Koff > 5 × 10^3 (legend))
binding result (human SIRPγ isoform 1 [4]): no binding (tested: Koff > 5 × 10^3 (legend))
binding result [5]: no binding (tested: Koff > 5 × 10^3 (legend))
koff (human SIRPβ isoform 1 [6]): 6.54e-05 s⁻¹
koff [7]: 0.00245 s⁻¹
koff [8]: 0.00401 s⁻¹
koff [9]: 0.000659 s⁻¹

B4: S191 (scFv, V domains shown)
VH: DVQLVESGGGVVRPGESLRLSCAASGFSFSSYAMNWVRQAPGEGLEWVSRINSGGGGTDYAESVKGRFTISRDNSENTLYLQMNSLRAEDTAVYYCAKQYDWNGFFDYWGLGALVTVSS
VL: ETVLTQSPATLSVSPGERATLSCRASQTVGSKLAWHQQKPGQAPRLLIYDATNRATGIPDRFSGSGSGTDFTLTISGLQTEDSAVYYCQQYYYWPPYRFGGGTKVEIK
notes: also called clone 191
binding result [10]: no binding (tested: Koff > 5 × 10^3 (legend))
binding result [5]: no binding (tested: Koff > 5 × 10^3 (legend))
binding result [11]: no binding (tested: Koff > 5 × 10^3 (legend))
koff [12]: 1.38e-05 s⁻¹
koff (human SIRPβ isoform 1 [6]): 1.01e-05 s⁻¹
koff [7]: 0.000295 s⁻¹
koff [13]: 5.54e-05 s⁻¹
koff [8]: 3.53e-05 s⁻¹
koff [9]: 6.67e-05 s⁻¹

B5: S132 (scFv, V domains shown)
VH: DVQLVESGGGVVRPGESLRLSCAASGFSFRSYAMNWVRQAPGEGLEWVSRINSGGGGTDYADSVKGRFTISRDNSKNTLYLQMNSLRAEDTAVYYCAKQYDWNSFFDYWGLGALVTVSS
VL: ETVLTQSPATLSVSPGERATLSCRASQTVGSKLAWHQQKPGQAPRLLIYDASNRATGIPDRFSGSGSGTDFTLTISSPQTEDSAVYYCQQYYYWPPYRFGGGTKVEIK
binding result [10]: no binding (tested: Koff > 5 × 10^3 (legend))
binding result [5]: no binding (tested: Koff > 5 × 10^3 (legend))
binding result [11]: no binding (tested: Koff > 5 × 10^3 (legend))
koff [12]: 7.12e-05 s⁻¹
koff (human SIRPβ isoform 1 [6]): 1.01e-05 s⁻¹
koff [7]: 7.95e-05 s⁻¹
koff [13]: 4.28e-05 s⁻¹
koff (human SIRPγ isoform 1 [14]): 1.05e-05 s⁻¹
koff [8]: 2.06e-05 s⁻¹
koff [9]: 3.34e-05 s⁻¹

B6: S198 (scFv, V domains shown)
VH: DVQLVESGGGVVRPGESLRLSCAASGFSFSSHAMNWVRQAPGEGLEWVSRINSGGGGTDYAESVKGRFTISRDNSENTLYLQMNSLRAEDTAVYYCAKQYDWNGFFDYWGLGALVTVSS
VL: ETVLTQSPATLSVSPGERATLSCRASQTVGSKLAWHQQKPGQAPRLLIYDATNRATGIPDRFSGSGSGTDFTLTISSLQTEDSAVYYCQQYYYWPPYRFGGGTKVEIK
binding result [10]: no binding (tested: Koff > 5 × 10^3 (legend))
binding result [5]: no binding (tested: Koff > 5 × 10^3 (legend))
binding result [11]: no binding (tested: Koff > 5 × 10^3 (legend))
koff [12]: 7.73e-05 s⁻¹
koff (human SIRPβ isoform 1 [6]): 4.72e-05 s⁻¹
koff [7]: 0.000787 s⁻¹
koff [13]: 8.34e-05 s⁻¹
koff [8]: 4.95e-05 s⁻¹
koff [9]: 3.67e-05 s⁻¹

B7: S173 (scFv, V domains shown)
VH: DVQLVESGGGVVRPGESLRLSCAASGFAFSDHDMSWVRQGPGEGLEWVAGISLRGGVTWYADSVKGRFTISRDNSKNTLYLRLFSLRTEDTAIYYCARESWNTFFDYWGLGTLVTVSS
VL: EIVLTQSPGTLSLSPGETATLSCRASQNVRSNLAWYQQKPGQAPRLLIYDASSRATGIPDRFSGSGSGTDFTLTISSLQSEDFAVYYCQQYGNGPPLTFGGGTKVEIK
binding result (human SIRPβ isoform 1 [15]): no binding (tested: Koff > 5 × 10^3 (legend))
binding result [3]: no binding (tested: Koff > 5 × 10^3 (legend))
binding result (human SIRPγ isoform 1 [4]): no binding (tested: Koff > 5 × 10^3 (legend))
binding result [5]: no binding (tested: Koff > 5 × 10^3 (legend))
binding result [11]: no binding (tested: Koff > 5 × 10^3 (legend))
koff [7]: 0.00137 s⁻¹
koff [8]: 0.00504 s⁻¹
koff [9]: 0.00112 s⁻¹

B8: S174 (scFv, V domains shown)
VH: DVQLVESGGGVVRPGESLRLSCAASGFTFSDHDMSWVRQGPGEGLEWVAGISLRGGVTWYADSVKGRFTISRDNSKNTLYLRLFSLRTEDTAIYYCARESWNTFFDYWGLGTLVTVSS
VL: EIVLTQSPGTLSLSPGETATLSCRASQNVRSNLAWYQQKPGQAPRLLIYDASSRATGIPDRFSGSGSGTDFTLTISSLQSEDFAVYYCQQYGNGPPLTFGGGTKVEIK
binding result (human SIRPβ isoform 1 [15]): no binding (tested: Koff > 5 × 10^3 (legend))
binding result [3]: no binding (tested: Koff > 5 × 10^3 (legend))
binding result (human SIRPγ isoform 1 [4]): no binding (tested: Koff > 5 × 10^3 (legend))
binding result [5]: no binding (tested: Koff > 5 × 10^3 (legend))
binding result [11]: no binding (tested: Koff > 5 × 10^3 (legend))
koff [7]: 0.00189 s⁻¹
koff [8]: 0.00399 s⁻¹
koff [9]: 0.00143 s⁻¹
